Experiment [1] addresses canine IL-4RA (construct not given) (canine). Kind of experiment: SPR, combinatorial Fab-SASA clone. In general terms: Surface plasmon resonance follows binding to a sensor surface in real time, without labels.
For experiment [2] the target is unchanged. Kind of experiment: SPR, IL-4RA immobilised, periplasmic Fab.

The term Kd denotes a measure of binding affinity in units of concentration. As usually defined, the koff is the first-order rate constant of dissociation. As usually defined, the kon is the second-order rate constant of association.

B1: AHF21170 (Fab, V domains shown, not shown: small tags and cut ends)
VH: EVQLVESGGDLVKPGGSLRLSCVASGFTFRDYAMTWVRQAPGKGLQWVSLINGSGGKTYYADAVKGRFTISRDNAKNTLYLQMNSLRAEDTAVYYCAVDRLTKTIRPQYYGLWVWGQGTLVTVSS
VL: DIVMTQTPLSLSVSPGETASISCRSSQSLTYSIGYNYLDWYLQKPGQSPQGLIYLGSKRASGVPDRFSGSGSGTDFTLRISRVEANDTGVYYCMQGLQSPLTFGQGTKLEIKR
Take B1: in experiment [1], the Kd stood at 940 pM, the koff was found to be 0.000138 s⁻¹ and the kon came to 147000 M⁻¹ s⁻¹.

B2: AHF21180 (Fab, V domains shown, not shown: small tags and cut ends)
VH: EVQLVESGGDLVKPGGSLRLSCVASGFTFRDYAMTWVRQAPGKGLQWVSLINGSGGKTYYADAVKGRFTISRDNAKNTLYLQMNSLRAEDTAVYYCAVDRKTKTIRPQYYGLWHWGQGTLVTVSS
VL: DIVMTQTPLSLSVSPGETASISCRSSQSLTYSIGYNYLDWYLQKPGQSPQGLIYLGSKRASGVPDRFSGSGSGTDFTLRISRVEANDTGVYYCMQPLQSPLTFGQGTKLEIKR
As for B2, in experiment [1], the Kd amounted to 259 pM, the koff was 5.68e-05 s⁻¹ and the kon was 219000 M⁻¹ s⁻¹.

B3: AHF21176 (Fab, V domains shown, not shown: small tags and cut ends)
VH: EVQLVESGGDLVKPGGSLRLSCVASGFTFRDYAMTWVRQAPGKGLQWVSLINGSGGKTYYADAVKGRFTISRDNAKNTLYLQMNSLRAEDTAVYYCAVDRKTKTIRPQYYGLWHWGQGTLVTVSS
VL: DIVMTQTPLSLSVSPGETASISCRSSQSLTYSIGYNYLDWYLQKPGQSPQGLIYLGHKRASGVPDRFSGSGSGTDFTLRISRVEANDTGVYYCMQGLQSPLGFGQGTKLEIKR
For B3, in experiment [1], the Kd was determined as 309 pM, the koff is 9.11e-05 s⁻¹ and the kon stood at 295000 M⁻¹ s⁻¹.

B4: AHF21177 (Fab, V domains shown, not shown: small tags and cut ends)
VH: EVQLVESGGDLVKPGGSLRLSCVASGFTFRDYAMTWVRQAPGKGLQWVSLINGSGGKTYYADAVKGRFTISRDNAKNTLYLQMNSLRAEDTAVYYCAVDRLTKTIRPQYYGLWVWGQGTLVTVSS
VL: DIVMTQTPLSLSVSPGETASISCRSSQSLTYSIGYNYLDWYLQKPGQSPQGLIYLGSKRASGVPDRFSGSGSGTDFTLRISRVEANDTGVYYCMQGLQSPLGFGQGTKLEIKR
For the molecule B4, in experiment [1], the Kd was 561 pM, the koff was 9.52e-05 s⁻¹ and the kon turned out to be 170000 M⁻¹ s⁻¹.

B5: FJ2246MP10E12 (Fab, V domains shown)
VH: EVQLVESGGDLVKPGGSLRLSCVASGFTFRDYAMTWVRQAPGKGLQWVSLISGSGGKTYYADAVKGRFTISRDNAKNTLYLQMNSLRAEDTAVYYCAVDRLTKTIRPQYYGLWVWGQGTLVTVSS
VL: DIVMTQTPLSLSVSPGETASISCRSSQSLLYSIGYNYLDWYLQKPGQSPQGLIYLGSKRASGVPDRFSGSGSGTDFTLRISRVEAEDTGVYYCMQGLQSPLSFGQGTKLEIK
For the molecule B5, in experiment [2], the Improvement over parental is 2 fold, the RU max was found to be 251 RU and the koff stood at 0.000139 s⁻¹.

B6: AHF21182 (Fab, V domains shown, not shown: small tags and cut ends)
VH: EVQLVESGGDLVKPGGSLRLSCVASGFTFRDYAMTWVRQAPGKGLQWVSLINGSGGKTYYADAVKGRFTISRDNAKNTLYLQMNSLRAEDTAVYYCAVDRLTKTIRPQYYGLWHWGQGTLVTVSS
VL: DIVMTQTPLSLSVSPGETASISCRSSQSLTYSIGYNYLDWYLQKPGQSPQGLIYLGHKRASGVPDRFSGSGSGTDFTLRISRVEANDTGVYYCMQGLQSPLLFGQGTKLEIKR
For the molecule B6, in experiment [1], the Kd is 442 pM, the koff was 0.000126 s⁻¹ and the kon turned out to be 286000 M⁻¹ s⁻¹.

B7: FJ2246MP10D01 (Fab, V domains shown)
VH: EVQLVESGGDLVKPGGSLRLSCVASGFTFRDYAMTWVRQAPGKGLQWVSLISGSGGKTYYADAVKGRFTISRDNAKNTLYLQMNSLRAEDTAVYYCAVDRLTKTIRPQYYGLWVWGQGTLVTVSS
VL: DIVMTQTPLSLSVSPGETASISCRSSQSLLYSIGYNYLDWYLQKPGQSPQGLIYLGSKRASGVPDRFSGSGSGTDFTLRISRVEADDTGVYYCMQGLQSPLSFGQGTKLEIK
Turning to B7, in experiment [2], the Improvement over parental is 2 fold, the RU max is 283 RU and the koff worked out at 0.000137 s⁻¹.

B8: FJ2246MP06F11 (Fab, V domains shown)
VH: EVQLVESGGDLVKPGGSLRLSCVASGFTFRDYAMTWVRQAPGKGLQWVSLINGDGSKTYYADAVKGRFTISRDNAKNTLYLQMNSLRAEDTAVYYCAVDRLTKTIRPQYYGLWVWGQGTLVTVSS
VL: DIVMTQTPLSLSVSPGETASISCRSSQSLLYSIGYNYLDWYLQKPGQSPQGLIYLGSKRASGVPDRFSGSGSGTDFTLRISRVEANDTGVYYCMQGLQSPLTFGQGTKLEIKR
For the molecule B8, in experiment [2], the Improvement over parental stood at 2 fold, the RU max was 196 RU and the koff is 0.000143 s⁻¹.

B9: FJ2246MP05A04 (Fab, V domains shown)
VH: EVQLVESGGDLVKPGGSLRLSCVASGLPFRDYAMTWVRQAPGKGLQWVSLISGSGGKTYYADAVKGRFTISRDNAKNTLYLQMNSLRAEDTAVYYCAVDRLTKTIRPQYYGLWVWGQGTLVTVSS
VL: DIVMTQTPLSLSVSPGETASISCRSSQSLLYSIGYNYLDWYLQKPGQSPQGLIYLGSKRASGVPDRFSGSGSGTDFTLRISRVEANDTGVYYCMQGLQSPLTFGQGTKLEIKR
On to B9, for which, in experiment [2], the Improvement over parental was found to be 2 fold, the RU max amounted to 329 RU and the koff is 0.000142 s⁻¹.

B10: FJ2246MP10G04 (Fab, V domains shown)
VH: EVQLVESGGDLVKPGGSLRLSCVASGFTFRDYAMTWVRQAPGKGLQWVSLISGSGGKTYYADAVKGRFTISRDNAKNTLYLQMNSLRAEDTAVYYCAVDRLTKTIRPQYYGLWVWGQGTLVTVSS
VL: DIVMTQTPLSLSVSPGETASISCRSSQSLLYSIGYNYLDWYLQKPGQSPQGLIYLGSKRASGVPDRFSGSGSGTDFTLRISRVEAEDTGVYYCMQGLQSPLSFGQGTKLEIK
Consider B10, for which, in experiment [2], the Improvement over parental is 2.1 fold, the RU max was determined as 251 RU and the koff turned out to be 0.000134 s⁻¹.

B11: AHF21178 (Fab, V domains shown, not shown: small tags and cut ends)
VH: EVQLVESGGDLVKPGGSLRLSCVASGFTFRDYAMTWVRQAPGKGLQWVSLINGSGGKTYYADAVKGRFTISRDNAKNTLYLQMNSLRAEDTAVYYCAVDRLTKTIRPQYYGLWVWGQGTLVTVSS
VL: DIVMTQTPLSLSVSPGETASISCRSSQSLTYSIGYNYLDWYLQKPGQSPQGLIYLGSKRASGVPDRFSGSGSGTDFTLRISRVEANDTGVYYCMQGLQSPLSFGQGTKLEIKR
In the case of B11, in experiment [1], the Kd came to 466 pM, the koff was found to be 8.27e-05 s⁻¹ and the kon came to 178000 M⁻¹ s⁻¹.

B12: FJ2246MP07E01 (Fab, V domains shown)
VH: EVQLVESGGDLVKPGGSLRLSCVASGFTFRDYAMTWVRQAPGKGLQWVSLISGSGGKTYYADAVKGRFTISRDNAKNTLYLQMNSLRAEDTAVYYCAVDRLTKTIRPQYYGLWSWGQGTLVTVSS
VL: DIVMTQTPLSLSVSPGETASISCRSSQSLLYSIGYNYLDWYLQKPGQSPQGLIYLGSKRASGVPDRFSGSGSGTDFTLRISRVEANDTGVYYCMQGLQSPLTFGQGTKLEIKR
Take B12: in experiment [2], the Improvement over parental turned out to be 2.1 fold, the RU max turned out to be 423 RU and the koff came out at 0.000135 s⁻¹.

B13: AHF21171 (Fab, V domains shown, not shown: small tags and cut ends)
VH: EVQLVESGGDLVKPGGSLRLSCVASGFTFRDYAMTWVRQAPGKGLQWVSLINGSGGKTYYADAVKGRFTISRDNAKNTLYLQMNSLRAEDTAVYYCAVDRLTKTIRPQYYGLWHWGQGTLVTVSS
VL: DIVMTQTPLSLSVSPGETASISCRSSQSLLYSIGYNYLDWYLQKPGQSPQGLIYLGHKRASGVPDRFSGSGSGTDFTLRISRVEANDTGVYYCMQGLQSPLSFGQGTKLEIKR
As for B13, in experiment [1], the Kd was found to be 470 pM, the koff stood at 0.000134 s⁻¹ and the kon came out at 285000 M⁻¹ s⁻¹.

B14: AHF21174 (Fab, V domains shown, not shown: small tags and cut ends)
VH: EVQLVESGGDLVKPGGSLRLSCVASGFTFRDYAMTWVRQAPGKGLQWVSLINGSGGKTYYADAVKGRFTISRDNAKNTLYLQMNSLRAEDTAVYYCAVDRLTKTIRPQYYGLWVWGQGTLVTVSS
VL: DIVMTQTPLSLSVSPGETASISCRSSQSLTYSIGYNYLDWYLQKPGQSPQGLIYLGHKRASGVPDRFSGSGSGTDFTLRISRVEANDTGVYYCMQGLQSPLSFGQGTKLEIKR
Regarding B14, in experiment [1], the Kd stood at 521 pM, the koff is 9.58e-05 s⁻¹ and the kon was 184000 M⁻¹ s⁻¹.

B15: AHF21172 (Fab, V domains shown, not shown: small tags and cut ends)
VH: EVQLVESGGDLVKPGGSLRLSCVASGFTFRDYAMTWVRQAPGKGLQWVSLINGSGGKTYYADAVKGRFTISRDNAKNTLYLQMNSLRAEDTAVYYCAVDRLTKTIRPQYYGLWVWGQGTLVTVSS
VL: DIVMTQTPLSLSVSPGETASISCRSSQSLLYSIGYNYLDWYLQKPGQSPQGLIYLGHKRASGVPDRFSGSGSGTDFTLRISRVEANDTGVYYCMQGLQSPLTFGQGTKLEIKR
In the case of B15, in experiment [1], the Kd is 740 pM, the koff was determined as 0.000168 s⁻¹ and the on-rate constant (kon) was 226000 M⁻¹ s⁻¹.

B16: AHF21173 (Fab, V domains shown, not shown: small tags and cut ends)
VH: EVQLVESGGDLVKPGGSLRLSCVASGFTFRDYAMTWVRQAPGKGLQWVSLINGSGGKTYYADAVKGRFTISRDNAKNTLYLQMNSLRAEDTAVYYCAVDRKTKTIRPQYYGLWVWGQGTLVTVSS
VL: DIVMTQTPLSLSVSPGETASISCRSSQSLTYSIGYNYLDWYLQKPGQSPQGLIYLGHKRASGVPDRFSGSGSGTDFTLRISRVEANDTGVYYCMQGLQSPLSFGQGTKLEIKR
On to B16, for which, in experiment [1], the Kd was 606 pM, the koff worked out at 9.69e-05 s⁻¹ and the kon turned out to be 160000 M⁻¹ s⁻¹.

B17: FJ2246MP06G06 (Parental Fab of TB640_005) (Fab, V domains shown)
VH: EVQLVESGGDLVKPGGSLRLSCVASGFTFRDYAMTWVRQAPGKGLQWVSLISGSGGKTYYADAVKGRFTISRDNAKNTLYLQMNSLRAEDTAVYYCAVDRLTKTIRPQYYGLWVWGQGTLVTVSS
VL: DIVMTQTPLSLSVSPGETASISCRSSQSLLYSIGYNYLDWYLQKPGQSPQGLIYLGSKRASGVPDRFSGSGSGTDFTLRISRVEANDTGVYYCMQGLQSPLTFGQGTKLEIKR
In the case of B17, in experiment [2], the Improvement over parental is 1 fold, the RU max amounted to 105 RU and the koff came out at 0.00028 s⁻¹.

B18: FJ2246MP05G01 (Fab, V domains shown)
VH: EVQLVESGGDLVKPGGSLRLSCVASGFPFRDFAMTWVRQAPGKGLQWVSLISGSGGKTYYADAVKGRFTISRDNAKNTLYLQMNSLRAEDTAVYYCAVDRLTKTIRPQYYGLWVWGQGTLVTVSS
VL: DIVMTQTPLSLSVSPGETASISCRSSQSLLYSIGYNYLDWYLQKPGQSPQGLIYLGSKRASGVPDRFSGSGSGTDFTLRISRVEANDTGVYYCMQGLQSPLTFGQGTKLEIKR
Turning to B18, in experiment [2], the Improvement over parental is 2 fold, the RU max worked out at 344 RU and the koff is 0.000142 s⁻¹.

For the origin of these results see US20250188176A1.
